T1: TIAR (nucleolysin TIAR, TIAL-1) (human, UniProt Q01085 1-375)
T1 sequence: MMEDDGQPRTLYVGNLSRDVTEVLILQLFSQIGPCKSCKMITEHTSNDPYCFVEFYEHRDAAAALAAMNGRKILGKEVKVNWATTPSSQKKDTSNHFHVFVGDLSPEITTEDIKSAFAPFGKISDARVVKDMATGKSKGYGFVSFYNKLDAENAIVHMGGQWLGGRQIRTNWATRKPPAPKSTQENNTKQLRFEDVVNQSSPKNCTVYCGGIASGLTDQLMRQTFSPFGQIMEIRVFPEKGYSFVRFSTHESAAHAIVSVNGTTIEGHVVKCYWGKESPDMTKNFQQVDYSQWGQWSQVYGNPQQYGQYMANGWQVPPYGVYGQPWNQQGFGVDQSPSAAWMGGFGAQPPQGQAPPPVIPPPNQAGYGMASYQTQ

B1: Myc 3' UTR 53-nt fragment (ssRNA)
RNA: GCUUCCCAUCUUUUUUCUUUUUCCUUUUAACAGAUUUGUAUUUAAUUGUUUUU
B2: PHAROH 71-nt hairpin (WT) (structured_RNA)
RNA: GAGAGGAUGCCACUGUUUUGAACUAUUUUGAAGGCACAGCCACCAGAGCUUUAGGGACAGGGUAUUUUAUC

How the values were obtained:
[1] = target: T1, TIAR (nucleolysin TIAR, TIAL-1); assay: EMSA; prefers one copy; three only at saturating TIAR; EMSA: ~2 fmol probe in 20 ul, 10 mM HEPES pH 7.3, 20 mM KCl, 1 mM MgCl2 (printed Mg2Cl2), 1 mM DTT, 30 ng/ul BSA, 0.01% NP-40, 5% glycerol, room temperature 30; settings: protein: commercial; label: 3' biotin; single strand; sites predicted largely in loop
[2] = target: T1, TIAR (nucleolysin TIAR, TIAL-1); assay: EMSA; densitometry of free probe; sequential shifts, prefers two and four copies; EMSA: ~2 fmol probe in 20 ul, 10 mM HEPES pH 7.3, 20 mM KCl, 1 mM MgCl2 (printed Mg2Cl2), 1 mM DTT, 30 ng/ul BSA, 0.01% NP-40, 5% glycerol, room temperature 30; settings: protein: commercial; hairpin (predicted)

Binder	binding result [1]	Kd [2]
B1	binds	–
B2	–	~2 nM

Reference: PMC8163507, “PHAROH lncRNA regulates Myc translation in hepatocellular carcinoma via sequestering TIAR”
